The EC50 is the concentration needed to bring the measured effect to its halfway point. The term Kd denotes the constant that tells how readily two partners part at equilibrium. One may read the koff as a measure of how fast the partners let go of each other. One may read the kon as the second-order rate constant of association. A lower kon goes with slower complex formation.

Consider one molecule from patent US20260028422A1 (CONCEPT TO MEDICINE BIOTECH, published 2026).

Experiment [1] has as its target T1, human MerTK expressed on cells (human, UniProt Q12866 21-999).
T1 construct: whole, on cells; also called CHO-K1-hMerTK; CHO-K1-MerTK
T1 sequence (looked up): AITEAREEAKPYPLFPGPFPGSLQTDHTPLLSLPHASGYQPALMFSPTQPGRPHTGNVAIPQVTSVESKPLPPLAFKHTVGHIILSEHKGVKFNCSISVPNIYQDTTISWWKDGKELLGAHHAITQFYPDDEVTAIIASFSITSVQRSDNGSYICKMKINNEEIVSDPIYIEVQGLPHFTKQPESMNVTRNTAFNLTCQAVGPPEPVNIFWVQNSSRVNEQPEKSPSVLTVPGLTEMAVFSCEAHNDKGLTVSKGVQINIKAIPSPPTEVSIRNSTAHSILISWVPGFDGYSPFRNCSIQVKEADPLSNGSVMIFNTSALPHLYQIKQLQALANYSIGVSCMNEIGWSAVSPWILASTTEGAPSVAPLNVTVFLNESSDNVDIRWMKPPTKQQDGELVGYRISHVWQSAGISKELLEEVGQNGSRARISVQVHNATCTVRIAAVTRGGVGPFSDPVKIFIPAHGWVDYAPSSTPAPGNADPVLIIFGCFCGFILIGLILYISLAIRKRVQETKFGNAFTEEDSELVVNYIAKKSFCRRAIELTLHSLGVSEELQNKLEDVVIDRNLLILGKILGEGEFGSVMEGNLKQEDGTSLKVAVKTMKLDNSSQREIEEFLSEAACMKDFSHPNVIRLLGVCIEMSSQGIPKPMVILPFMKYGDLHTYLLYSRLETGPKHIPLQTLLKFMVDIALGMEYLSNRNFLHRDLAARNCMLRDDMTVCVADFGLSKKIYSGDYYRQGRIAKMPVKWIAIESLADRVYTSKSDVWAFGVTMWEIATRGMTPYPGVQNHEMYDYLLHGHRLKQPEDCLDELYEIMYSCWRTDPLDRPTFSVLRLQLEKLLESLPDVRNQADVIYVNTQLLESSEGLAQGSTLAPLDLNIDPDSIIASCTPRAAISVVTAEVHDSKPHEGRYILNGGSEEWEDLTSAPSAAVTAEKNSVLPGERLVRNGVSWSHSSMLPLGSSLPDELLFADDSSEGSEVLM
Description: FACS on CHO-K1 cells overexpressing human MerTK, MFI (AF488).

The target of experiment [2] is T2, human MerTK-his protein (human, UniProt Q12866 21-505).
T2 construct: extracellular domain; also called hMerTK-His; human MerTK protein
T2 sequence (looked up): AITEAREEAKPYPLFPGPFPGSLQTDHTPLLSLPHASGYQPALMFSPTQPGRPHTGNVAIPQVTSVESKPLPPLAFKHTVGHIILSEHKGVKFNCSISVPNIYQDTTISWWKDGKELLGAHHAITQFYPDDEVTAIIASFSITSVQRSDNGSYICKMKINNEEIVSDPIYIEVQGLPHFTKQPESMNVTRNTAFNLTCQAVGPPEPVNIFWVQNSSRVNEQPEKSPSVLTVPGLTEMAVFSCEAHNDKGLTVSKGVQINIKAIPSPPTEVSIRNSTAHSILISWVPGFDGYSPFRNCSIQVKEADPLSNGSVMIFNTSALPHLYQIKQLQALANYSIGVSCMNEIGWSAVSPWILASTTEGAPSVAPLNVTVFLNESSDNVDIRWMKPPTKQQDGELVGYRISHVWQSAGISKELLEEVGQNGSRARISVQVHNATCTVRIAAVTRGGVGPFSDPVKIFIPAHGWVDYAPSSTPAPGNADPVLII
Description: SPR Biacore 8K, antibody captured on Protein A chip, 50 nM antigen. As for the experimental part:
To explore whether the humanized antibodies could maintain their binding kinetics, affinity ranking were performed with Biacore™. The antibodies were captured with a Protein A chips. Human MerTK-his protein at 50 nM was injected over captured antibodies for 180 s at a flow rate of 30 μL/min. The antigen was allowed to dissociate for 600 s. The experiment was carried out on a Biacore™ 8K. Data analysis was carried out using Biacore™ 8K evaluation software.

Experiment [3] concerns the target T2, human MerTK-his protein. The experiment can be described thus: ELISA, plate coated with human MerTK-his, OD 450nm. As for the experimental part:
To evaluate the binding activity, the chimeric mAbs were subjected to ELISA test. Briefly, 96-well plates were coated with human or cyno MerTK-his protein at 2 μg/mL in PBS, 100 μL/well at 4° C. overnight, then blocked with 150 μL/well of 1% BSA. Five-fold dilutions of MerTK antibodies starting from 20 nM were added to each well and incubated for 1 hour at room temperature. The plates were washed with PBS/Tween-20 and then incubated with goat anti-human IgG Fe antibody conjugated with Horse Radish Peroxidase (HRP) for 30 minutes (mins) at room temperature. After washing, the plates were developed with TMB substrate and subsequent stop solution was added to complete the reaction. The signal from each well was read by spectrophotometer at OD 450 nm.
To evaluate the antigen binding activity, the humanized antibodies were subjected to ELISA test as described before.
On the technique in general: In an ELISA, binding on a coated surface is turned into a signal by an enzyme label.

B1: 254B4D9Hu-2 (antibody, V domains shown)
VH: QVQLVQSGHEVKQPGASVKVSCKASGYSFTAYGMSWVKQAPGQGLQWMGWINTYSGVPTYTDDFKGRFVFSLDTSASTAFLQISSLKAEDMAMYFCARRAAVVAKYWYFDVWGQGTTVTVSS
VL: DIQMTQSPSSLSASVGDRVTITCKSSQDINKRISWYQQKPGKAPKLLIHSTSSLQPGVPSRFSGSGSGRDFTFTISSLQPEDIATYFCLQYDNLLTFGQGTKLEIK
B1 returned an EC50 in experiment [1] of 1.1 nM. In the experiment with human MerTK-his protein [2], this molecule displayed a Kd of 10.9 nM, a koff of 0.000592 s⁻¹ and a kon of 54100 M⁻¹ s⁻¹. The same molecule returned an EC50 with human MerTK-his protein [3] of 0.064 nM.
